Patent US20170152313A1 (Novartis, published 2017)

Columns and labels:
[1] = target: T1, APP-Avi-soluble cynomolgus monkey LOX-1 (61-273) (cynomolgus monkey, biotinylated at the Avi tag when immobilised in the SET assay); experiment: SPR Biacore T200, antibody captured by anti-mouse IgG, cynomolgus soluble LOX-1 as analyte, 1:1 model
T1 construct: Expressed and purified in the same way as the human protein; also called cynomolgus monkey soluble LOX-1; Cynomolgus Monkey Soluble APP-Avi-LOX-1
Protocol: For murine LOX-1 antibody E2E10 binding to human and cynomolgus monkey LOX-1, a Biacore T200 was primed with fresh, filtered running buffer (1×HBS-EP+(GE catalog number BR-1006-60)). A CM5 chip (GE catalog number BR-1005-30) was prepared using a mouse antibody capture kit (GE catalog number BR-1008-38) and an amine coupling kit (GE catalog number BR-1000-50). Briefly, a new chip was activated with EDC/NHS at 10 ul/min for 420 sec. Anti-mouse IgG antibody was immobilized at […] 10 mM acetate pH 5.0 at 10 ul/min for 420 sec. The chip surface was deactivated with 1M ethanolamine solution (10 ul/min for 420 sec) and then conditioned three times with 10 mM Glycine-HCl, pH 1.5 (GE catalog number BR-1003-54) at 60 ul/min for 30 sec.
For sample cycles, 1) Ms-anti-Hu LOX-1 mAb was captured on flow cell 2, 3, or 4 for a pre-determined amount of time that allowed for capture of approximately 20RUs at 10 ul/min. Flow cell 1 was used as a reference, 2) running buffer for 30s at 60 ul/min, 3) human soluble LOX-1 or cynomolgus monkey soluble LOX-1 diluted in running buffer at various concentrations (with at least two duplicate samples and multiple buffer blanks for 350 sec at 60 ul/min, with either 750 sec or 3000 sec dissociation time), 4) regeneration buffer for 60 sec at 60 ul/min, 5) running buffer for 35s at 60 ul/min, extra wash with running buffer and including a carry-over control. Data were analyzed using buffer blanks, reference blank, and a 1:1 binding model for curve fitting in order to determine association and dissociation rate constants (ka and kd) and equilibrium binding constants (KD) (see results for E2E10 in Tables 7-8).

[2] = target: T2, Human LOX-1 full-length protein (human, UniProt P78380 1-273); experiment: flow cytometry, biotinylated antibody on primary human neutrophils, PE-streptavidin
T2 construct: also called huLOX-1/HEK293 cells; human LOX-1 transfected HEK293 cells
Protocol: The resulting cell suspension was carefully transferred to a 50 mL conical tube containing 10 mL Ficoll-Paque, layering the cell suspension on top of the Ficoll-Paque, and the tube was then centrifuged at 1400 rpm (400×g) for 30 minutes at room temperature. The top layer was the discarded. To the resulting cell pellet, 10 mL 0.2% ice-cold sodium chloride was added, and the mixture was incubated for exactly 30 seconds to lyse red blood cells; 10 mL of ice-cold 1.6% sodium chloride was added to restore isotonicity. The cell suspension was then centrifuged at 1200 rpm ([…]) for 5 minutes. The supernantant was then discarded, and the red blood cell lysis procedure repeated once more. The resulting cell pellet was resuspended in FACS buffer (2 mM EDTA, 1% BSA, and 0.2% sodium azide in PBS) at a cell density of 2×10⁶ cells/mL.
The cell suspension containing freshly isolated human neutrophils was transferred (50 ul/well) to wells of a 96-well V-bottom plate (1×10⁵ cells/well) (Costar, catalog number 3894). Blocking buffer (4% normal rabbit serum diluted in FACS buffer (2 mM EDTA, 1% BSA, and 0.2% sodium azide in PBS) (50 ul/well) was added and the plate was incubated on ice for 30 minutes. Biotinylated LOX-1 antibody (10 μl) in FACS buffer was then added to the wells at final concentrations ranging from 1 ng/ml to 5 ug/mL, and the plate was incubated on ice for 30 minutes. The plate was then centrifuged at 1200 rpm (250-300×g) for 3 minutes and supernatant was discarded. The cells were then washed twice with 0.2 mL FACS buffer, and then 0.1 mL of PE-streptavidin (BD Pharmingen catalog number 554061) diluted at 1:250 in FACS buffer was added, and the plate incubated on ice for 30 minutes. The plate was then centrifuged again, supernatant discarded, and the cells washed twice with 0.2 mL FACS buffer. Cells were then resuspended in 0.1 mL of fixing buffer (FACS buffer with 2% paraformaldehyde) and analyzed using a FACS instrument. To determine an EC50 value for neutrophil binding by LOX-1 antibodies, the LOX-1 staining intensity determined by FACS was plotted vs. the concentration of the antibody as shown in FIG. 5 and Table 3.

[3] = target: T2, Human LOX-1 full-length protein; experiment: cell-based or functional assay
[4] = target: T2, Human LOX-1 full-length protein; experiment: flow cytometry, inhibition of dil-OxLDL binding to huLOX-1/HEK293 cells
Protocol: The huLOX-1/HEK293 cells were resuspended at 1×10⁶ cells/mL and seeded 50 μL per well into a 96-well V-bottom plate (5×10⁴ cells per well). LOX-1 or irrelevant control antibodies in assay medium (DMEM+10% FBS) were then added to the cells. Typical final antibody concentrations ranged from 0.006 μg/mL to 20 μg/mL. The cells were incubated at 37° C. for 1 hour, then washed twice with warm HBSS. Dil-oxLDL (human dil-labeled “High Oxidized” LDL, Kalen Biomedical, catalog number 770262-9; Dil is 1,1′-dioctadecyl-3,3,3′,3′-tetramethylindocarbocyanine perchlorate) in 50 ul assay medium was then added to a final concentration 30 to 100 μg/mL. The cells were then incubated at 37° C. for 2 hours, and then washed twice with FACS buffer (2% FBS in PBS). Cells were then analyzed for intensity of Di-I fluorescence by flow cytometry, as depicted in FIG. 2 and Table 3.

T1 sequence (chain, as listed by the source): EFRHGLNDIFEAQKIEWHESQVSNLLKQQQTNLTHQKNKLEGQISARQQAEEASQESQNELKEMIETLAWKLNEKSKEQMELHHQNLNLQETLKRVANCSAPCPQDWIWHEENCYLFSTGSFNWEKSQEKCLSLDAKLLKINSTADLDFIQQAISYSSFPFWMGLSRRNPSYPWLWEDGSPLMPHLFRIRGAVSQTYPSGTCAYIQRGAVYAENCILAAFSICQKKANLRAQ

B1: E2E10 (murine parental) (antibody, IgG1, V domains shown)
VH: QVQLQQSGAELVRPGASVKLSCKALGYTFTDYEMHWVKQTPVHGLEWIGAIHPGSGGAAYIQKFKGKATLTADKSSSTAHMELSSLTSEDSAVYYCTRWLPMDYWGQGTSVTVSS
VL: DIQMTQSSSYLSVSLGGRVTITCKASDHINNWLAWYQQKPGNAPRLLISGATSLETGVPSRFSGSGSGKDYTLSITGLQTEDVATYYCQQYLITPYTFGGGTKLEIK
notes: Mouse hybridoma monoclonal antibody, IgG1 with a kappa light chain; Biotinylated in the SET and neutrophil assays; also called Clone 39.1E2E10; mouse parental
Kd [1]: 0.015 nM | koff [1]: 2.5e-05 s⁻¹ | kon [1]: 1.7e+06 M⁻¹ s⁻¹ | EC50 [2]: 0.04 µg/mL | Reactive oxygen species (ROS) generation in huLOX-1/HEK293 cells (IC50, nM) [3]: 5.7 nM | IC50 [4]: 4 nM
